Data on two proteins can be found in paper PMC4216055 (Carcinogenesis, 2014).

This data set concerns the molecule itself. The data set is described as follows: cross-linking.

B1: Human recombinant granulin-epithelin precursor (rGEP) (natural protein, UniProt P28799 14-593, looked up)
chain: LVAGTRCPDGQFCPVACCLDPGGASYSCCRPLLDKWPTTLSRHLGGPCQVDAHCSAGHSCIFTVSGTSSCCPFPEAVACGDGHHCCPRGFHCSADGRSCFQRSGNNSVGAIQCPDSQFECPDFSTCCVMVDGSWGCCPMPQASCCEDRVHCCPHGAFCDLVHTRCITPTGTHPLAKKLPAQRTNRAVALSSSVMCPDARSRCPDGSTCCELPSGKYGCCPMPNATCCSDHLHCCPQDTVCDLIQSKCLSKENATTDLLTKLPAHTVGDVKCDMEVSCPDGYTCCRLQSGAWGCCPFTQAVCCEDHIHCCPAGFTCDTQKGTCEQGPHQVPWMEKAPAHLSLPDPQALKRDVPCDNVSSCPSSDTCCQLTSGEWGCCPIPEAVCCSDHQHCCPQGYTCVAEGQCQRGSEIVAGLEKMPARRASLSHPRDIGCDQHTSCPVGQTCCPSLGGSWACCQLPHAVCCEDRQHCCPAGYTCNVKARSCEKEVVSAQPATFLARSPHVGVKDVECGEGHFCHDNQTCCRDNRQGWACCPYRQGVCCADRRHCCPAGFRCAARGTKCLRREAPRWDAPLRDPALRQLL
modifications: N-glycan (removed by PNGase F only for the gel analysis)
In the case of B1, the binding result is reported as “binds”.

B2: rGEP-3A (rGEP with alanine mutations at RRH(555-557)) (natural protein, human, UniProt P28799 14-593, looked up)
chain: LVAGTRCPDGQFCPVACCLDPGGASYSCCRPLLDKWPTTLSRHLGGPCQVDAHCSAGHSCIFTVSGTSSCCPFPEAVACGDGHHCCPRGFHCSADGRSCFQRSGNNSVGAIQCPDSQFECPDFSTCCVMVDGSWGCCPMPQASCCEDRVHCCPHGAFCDLVHTRCITPTGTHPLAKKLPAQRTNRAVALSSSVMCPDARSRCPDGSTCCELPSGKYGCCPMPNATCCSDHLHCCPQDTVCDLIQSKCLSKENATTDLLTKLPAHTVGDVKCDMEVSCPDGYTCCRLQSGAWGCCPFTQAVCCEDHIHCCPAGFTCDTQKGTCEQGPHQVPWMEKAPAHLSLPDPQALKRDVPCDNVSSCPSSDTCCQLTSGEWGCCPIPEAVCCSDHQHCCPQGYTCVAEGQCQRGSEIVAGLEKMPARRASLSHPRDIGCDQHTSCPVGQTCCPSLGGSWACCQLPHAVCCEDRQHCCPAGYTCNVKARSCEKEVVSAQPATFLARSPHVGVKDVECGEGHFCHDNQTCCRDNRQGWACCPYRQGVCCADAAACCPAGFRCAARGTKCLRREAPRWDAPLRDPALRQLL
B2: the binding result is “binds”.
